Laboratory results as given in the supplement of paper PMC9112550, “Optimization of the antimicrobial peptide Bac7 by deep mutational scanning” (BMC Biology, 2022).

Tested on: Escherichia coli TOP10
Experiment: shrunken log2 fold change of peptide-encoding DNA abundance (4.5 h post-induction vs induction); higher = less antimicrobial activity (less host growth inhibition)
Details: time post-induction: 4.5 h; library: site-saturation at positions 5, 18, 19, 20
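Also: peptides expressed intracellularly from a pBAD plasmid library in pooled LB shake-flask culture, induced with 0.3% L-arabinose, DNA abundance read by NGS, three biological replicates, DESeq2 with apeglm shrinkage.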

First: RRIRCRPPRLPRPRPRPEQVPRP
Second: RRIRCRPPRLPRPRPRPKMYPRP
The “shrunken log2 fold change” value of the first is higher: -0.0491 for the first, -0.342 for the second.

Going from RRIRPRPPRLPRPRPRPRGSPRP to RRIRRRPPRLPRPRPRPSREPRP, the “shrunken log2 fold change” value rises from 0.285 to 0.962.

RRIRVRPPRLPRPRPRPWALPRP and RRIRFRPPRLPRPRPRPWVHPRP are within 0.2 log units of each other in “shrunken log2 fold change” value: -0.112 for the first, 0.0589 for the second.

First: RRIRNRPPRLPRPRPRPFYDPRP
Second: RRIRKRPPRLPRPRPRPDDMPRP
The “shrunken log2 fold change” value of the first is lower: 0.18 for the first, 2.74 for the second.

RRIRQRPPRLPRPRPRPGRIPRP and RRIRPRPPRLPRPRPRPLCRPRP are within 0.2 log units of each other in “shrunken log2 fold change” value: -0.123 for the first, 0.0255 for the second.

Compared with RRIRYRPPRLPRPRPRPYHMPRP, RRIRWRPPRLPRPRPRPALEPRP is higher in “shrunken log2 fold change” value: -0.00245 for the first, 0.939 for the second.

RRIRMRPPRLPRPRPRPREWPRP and RRIRKRPPRLPRPRPRPDKRPRP are within 0.2 log units of each other in “shrunken log2 fold change” value: -0.0018 for the first, -0.0063 for the second.

Compared with RRIRQRPPRLPRPRPRPRVHPRP, RRIRIRPPRLPRPRPRPLWKPRP is higher in “shrunken log2 fold change” value: -0.163 for the first, 0.145 for the second.

Going from RRIRYRPPRLPRPRPRPTKWPRP to RRIRTRPPRLPRPRPRPNAEPRP, the “shrunken log2 fold change” value rises from -0.489 to 0.25.

RRIRMRPPRLPRPRPRPIRYPRP and RRIRNRPPRLPRPRPRPGTNPRP are within 0.2 log units of each other in “shrunken log2 fold change” value: 0.0982 for the first, -0.0826 for the second.

First: RRIRDRPPRLPRPRPRPRFCPRP
Second: RRIRTRPPRLPRPRPRPFNWPRP
The “shrunken log2 fold change” value of the first is higher: 0.341 for the first, -0.22 for the second.

First: RRIRYRPPRLPRPRPRPAIGPRP
Second: RRIRHRPPRLPRPRPRPVLGPRP
The “shrunken log2 fold change” value of the first is lower: -0.105 for the first, 0.463 for the second.

Compared with RRIRLRPPRLPRPRPRPWWEPRP, RRIRNRPPRLPRPRPRPINVPRP is lower in “shrunken log2 fold change” value: 0.176 for the first, -0.0327 for the second.

Compared with RRIRERPPRLPRPRPRPKNVPRP, RRIRRRPPRLPRPRPRPHLNPRP is lower in “shrunken log2 fold change” value: 0.0204 for the first, -0.194 for the second.

Going from RRIRMRPPRLPRPRPRPFAYPRP to RRIRDRPPRLPRPRPRPACDPRP, the “shrunken log2 fold change” value rises from -0.157 to 0.472.

First: RRIRDRPPRLPRPRPRPNEEPRP
Second: RRIRARPPRLPRPRPRPKKNPRP
The “shrunken log2 fold change” value of the first is lower: -0.019 for the first, 0.441 for the second.

RRIRTRPPRLPRPRPRPLVKPRP and RRIRNRPPRLPRPRPRPWLVPRP are within 0.2 log units of each other in “shrunken log2 fold change” value: -0.0793 for the first, -0.151 for the second.

Going from RRIRARPPRLPRPRPRPRAFPRP to RRIRHRPPRLPRPRPRPYNWPRP, the “shrunken log2 fold change” value falls from 0.398 to -0.928.

RRIRARPPRLPRPRPRPVHMPRP and RRIRMRPPRLPRPRPRPNEDPRP are within 0.2 log units of each other in “shrunken log2 fold change” value: -0.00775 for the first, 0.186 for the second.

RRIRSRPPRLPRPRPRPDDFPRP and RRIRDRPPRLPRPRPRPWCWPRP are within 0.2 log units of each other in “shrunken log2 fold change” value: -0.151 for the first, 0.036 for the second.

First: RRIRTRPPRLPRPRPRPEKFPRP
Second: RRIRERPPRLPRPRPRPPPSPRP
The “shrunken log2 fold change” value of the first is lower: -0.376 for the first, 0.415 for the second.

RRIRVRPPRLPRPRPRPSCTPRP and RRIRERPPRLPRPRPRPVSTPRP are within 0.2 log units of each other in “shrunken log2 fold change” value: -0.175 for the first, -0.199 for the second.

First: RRIRRRPPRLPRPRPRPNWIPRP
Second: RRIRERPPRLPRPRPRPKTIPRP
The “shrunken log2 fold change” value of the first is higher: 0.259 for the first, -0.232 for the second.

Compared with RRIRFRPPRLPRPRPRPVTVPRP, RRIRERPPRLPRPRPRPVSRPRP is higher in “shrunken log2 fold change” value: -0.264 for the first, 0.23 for the second.

First: RRIRNRPPRLPRPRPRPLMAPRP
Second: RRIRLRPPRLPRPRPRPWMCPRP
The “shrunken log2 fold change” value of the first is higher: 0.176 for the first, -0.492 for the second.

First: RRIRSRPPRLPRPRPRPQGWPRP
Second: RRIRKRPPRLPRPRPRPKTTPRP
The “shrunken log2 fold change” value of the first is higher: 0.469 for the first, 0.0195 for the second.

RRIRHRPPRLPRPRPRPDPAPRP and RRIRKRPPRLPRPRPRPKETPRP are within 0.2 log units of each other in “shrunken log2 fold change” value: 0.189 for the first, 0.35 for the second.

Going from RRIRNRPPRLPRPRPRPAALPRP to RRIRYRPPRLPRPRPRPLGDPRP, the “shrunken log2 fold change” value falls from 0.341 to -0.079.

Compared with RRIRMRPPRLPRPRPRPPMDPRP, RRIRMRPPRLPRPRPRPGELPRP is lower in “shrunken log2 fold change” value: 0.343 for the first, -0.0122 for the second.

Compared with RRIRSRPPRLPRPRPRPPWAPRP, RRIRVRPPRLPRPRPRPQIWPRP is lower in “shrunken log2 fold change” value: 0.643 for the first, -0.192 for the second.

RRIRRRPPRLPRPRPRPVHSPRP and RRIRWRPPRLPRPRPRPMYEPRP are within 0.2 log units of each other in “shrunken log2 fold change” value: -0.0233 for the first, -0.103 for the second.

Going from RRIRQRPPRLPRPRPRPYKDPRP to RRIRARPPRLPRPRPRPVRPPRP, the “shrunken log2 fold change” value rises from -0.0988 to 0.602.

RRIRKRPPRLPRPRPRPPCRPRP and RRIRNRPPRLPRPRPRPMGVPRP are within 0.2 log units of each other in “shrunken log2 fold change” value: 0.264 for the first, 0.165 for the second.

Going from RRIRSRPPRLPRPRPRPLPQPRP to RRIRFRPPRLPRPRPRPDNHPRP, the “shrunken log2 fold change” value falls from 0.461 to -0.232.

First: RRIRYRPPRLPRPRPRPSVTPRP
Second: RRIRSRPPRLPRPRPRPWLYPRP
The “shrunken log2 fold change” value of the first is higher: -0.421 for the first, -0.652 for the second.

Going from RRIRGRPPRLPRPRPRPPPPPRP to RRIRSRPPRLPRPRPRPQNIPRP, the “shrunken log2 fold change” value falls from 1.54 to -0.657.

Compared with RRIRSRPPRLPRPRPRPENMPRP, RRIRSRPPRLPRPRPRPFFTPRP is higher in “shrunken log2 fold change” value: -0.459 for the first, -0.00429 for the second.

With RRIRGRPPRLPRPRPRPEFHPRP the “shrunken log2 fold change” value was 1.85.
